Reference: paper doi:10.1101/2023.07.15.549169

What was measured:
Assay in all cases: AlphaScreen or HTRF
Conditions in all cases: remark: other sources report otherwise
[1] = target: T1, His-tagged SMAD4 WT (Mothers against decapentaplegic homolog 4), Q13485
T1 chain: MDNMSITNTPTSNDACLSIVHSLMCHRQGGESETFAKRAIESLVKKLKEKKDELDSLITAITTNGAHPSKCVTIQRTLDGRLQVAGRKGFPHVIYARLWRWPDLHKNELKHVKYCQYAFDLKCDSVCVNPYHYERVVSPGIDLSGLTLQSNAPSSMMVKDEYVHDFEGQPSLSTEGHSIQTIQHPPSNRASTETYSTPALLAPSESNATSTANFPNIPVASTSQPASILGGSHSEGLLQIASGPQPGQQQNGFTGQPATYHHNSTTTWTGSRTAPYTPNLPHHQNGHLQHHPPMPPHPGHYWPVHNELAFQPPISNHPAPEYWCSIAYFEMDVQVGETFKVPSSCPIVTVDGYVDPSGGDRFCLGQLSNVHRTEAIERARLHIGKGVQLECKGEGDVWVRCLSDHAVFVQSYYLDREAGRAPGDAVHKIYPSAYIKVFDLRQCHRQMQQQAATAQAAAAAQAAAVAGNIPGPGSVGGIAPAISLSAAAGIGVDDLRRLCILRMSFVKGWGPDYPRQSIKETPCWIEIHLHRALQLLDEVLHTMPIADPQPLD

[2] = target: T2, His-tagged SMAD4 R361C, Q13485
T2 chain: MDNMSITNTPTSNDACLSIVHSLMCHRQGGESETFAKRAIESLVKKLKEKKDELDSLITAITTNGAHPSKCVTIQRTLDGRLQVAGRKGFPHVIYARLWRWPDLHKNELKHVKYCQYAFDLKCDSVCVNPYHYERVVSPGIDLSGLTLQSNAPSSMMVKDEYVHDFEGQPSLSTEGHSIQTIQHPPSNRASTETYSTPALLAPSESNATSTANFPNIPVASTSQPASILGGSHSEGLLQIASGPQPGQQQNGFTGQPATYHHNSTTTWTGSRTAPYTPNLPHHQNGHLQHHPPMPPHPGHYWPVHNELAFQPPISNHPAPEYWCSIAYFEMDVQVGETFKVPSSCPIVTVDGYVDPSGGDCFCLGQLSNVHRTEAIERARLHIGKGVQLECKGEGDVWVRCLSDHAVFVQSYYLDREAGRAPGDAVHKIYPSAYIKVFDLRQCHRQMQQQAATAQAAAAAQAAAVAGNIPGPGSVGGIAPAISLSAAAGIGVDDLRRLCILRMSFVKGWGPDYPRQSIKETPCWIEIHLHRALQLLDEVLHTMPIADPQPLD

[3] = target: T3, His-tagged SMAD4 R361H, Q13485
T3 chain: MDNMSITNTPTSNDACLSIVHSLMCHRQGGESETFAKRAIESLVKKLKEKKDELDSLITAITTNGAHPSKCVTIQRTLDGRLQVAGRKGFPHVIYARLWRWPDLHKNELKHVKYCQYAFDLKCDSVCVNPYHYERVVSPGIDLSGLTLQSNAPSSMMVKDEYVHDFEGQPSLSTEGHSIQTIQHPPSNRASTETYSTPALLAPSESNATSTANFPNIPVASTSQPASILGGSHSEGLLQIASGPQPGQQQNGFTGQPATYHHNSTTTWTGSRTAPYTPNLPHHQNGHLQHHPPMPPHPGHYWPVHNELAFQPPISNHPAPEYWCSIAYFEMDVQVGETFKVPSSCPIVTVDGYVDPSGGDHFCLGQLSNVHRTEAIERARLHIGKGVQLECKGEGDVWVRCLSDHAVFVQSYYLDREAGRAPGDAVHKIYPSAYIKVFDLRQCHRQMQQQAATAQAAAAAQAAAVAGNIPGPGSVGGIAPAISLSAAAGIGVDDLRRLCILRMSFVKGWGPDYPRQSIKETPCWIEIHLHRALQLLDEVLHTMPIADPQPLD

B1: Flag-tagged SMAD3 WT, P84022 1-425 (natural protein)
chain: MSSILPFTPPIVKRLLGWKKGEQNGQEEKWCEKAVKSLVKKLKKTGQLDELEKAITTQNVNTKCITIPRSLDGRLQVSHRKGLPHVIYCRLWRWPDLHSHHELRAMELCEFAFNMKKDEVCVNPYHYQRVETPVLPPVLVPRHTEIPAEFPPLDDYSHSIPENTNFPAGIEPQSNIPETPPPGYLSEDGETSDHQMNHSMDAGSPNLSPNPMSPAHNNLDLQPVTYCEPAFWCSISYYELNQRVGETFHASQPSMTVDGFTDPSNSERFCLGLLSNVNRNAAVELTRRHIGRGVRLYYIGGEVFAECLSDSAIFVQSPNCNQRYGWHPATVCKIPPGCNLKIFNNQEFAALLAQSVNQGFEAVYQLTRMCTIRMSFVKGWGAEYRRQTVTSTPCWIELHLNGPLQWLDKVLTQMGSPSIRCSSVS
Q: What does the source list for B1?
A: decrease of the PPI signal with 5'-FAM-SBE4 Mut dsDNA against WT dsDNA [1]: 15%; reduction of the PPI signal against SMAD4 WT [2]: 75%; reduction of the PPI signal against SMAD4 WT [3]: 75%
